This note sets out measurements from US20140099332A1 (IMMUNOGEN, published 2014).

In test [1] the target is T1, human FolR1-Fc fusion protein (human; mouse, UniProt P15328 25-233).
T1 construct: The construct encodes the 233 amino acids from the N-terminal signal peptide to just upstream of the GPI linkage site; also called huFOLR1-Fc; human folate receptor 1 Fc fusion molecule; not shown: residues encoded by the Pst1 to BamHI oligonucleotide linker
Description: sandwich ELISA (Folate ELISA): 1 ug/ml FR1-64, 1 ug/ml FR1-13-Biotin, FOLR1-Fc titrated.

Test [2] concerns the target T2, FOLR3 (human, UniProt P41439 23-245, limits assumed).
T2 construct: also called folate receptor 3
Description: ELISA with FOLR3-His antigen titrated ([Ag ug/ml]); positive control reaches about 2.6 after 3 min development [right graph (FOLR3-His].

In test [3] the target is T3, human folate receptor 1 (FOLR1) on cells (human, UniProt P15328 25-234).
T3 construct: also called FRA; huFolR1
T3 sequence (P15328 25-234): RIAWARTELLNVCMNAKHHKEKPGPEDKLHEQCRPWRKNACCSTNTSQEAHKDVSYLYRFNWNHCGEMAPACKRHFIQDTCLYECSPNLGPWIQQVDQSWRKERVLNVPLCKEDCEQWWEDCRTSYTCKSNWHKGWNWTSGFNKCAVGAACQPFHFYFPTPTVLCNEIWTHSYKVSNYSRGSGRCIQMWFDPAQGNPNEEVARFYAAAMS
Description: apparent binding affinity 'by both methods': flow cytometry on T47D cells and ELISA; upper end of the range given for FR1-13; flow cytometry on T47D cells and ELISA. As for the experimental part:
(§1) To assure that materials were continuously performing as expected, all antibodies were screened for binding by both ELISA and flow cytometry methods known in the art. Flow cytometry was performed using FOLR1 expressing human T47D cells cultured using in-vitro cell culture techniques known in the art. The antibodies were bound to these cells and detected indirectly using a goat anti-murine Alexa-fluor 488 detection antibody on a FACScalibur machine (FIG. 6A-B).

Test [4] has as its target T4, FOLR2 (UniProt P14207 17-230, limits assumed).
T4 construct: also called folate receptor 2
Description: ELISA on FOLR2-His antigen, antibody titrated ([Ab] (M)); positive control FR2 Ab reaches about 0.42 [left graph (FOLR2-His].

For test [5], the target named is T3, human folate receptor 1 (FOLR1) on cells. Description: apparent binding affinity 'by both methods': flow cytometry on T47D cells and ELISA; lower end of the range given for FR1-13; flow cytometry on T47D cells and ELISA. As for the experimental part: as §1
The target is the same in test [6]. Description: indirect flow cytometry, T47D cells, Alexa-488 goat anti-mouse. As for the experimental part:
as §1

Test [7] has the same target. Description: laser scanning cytometry on cell lines, optimal dilution 1:200. As for the experimental part:
(§2) Three cell lines with varying levels of FOLR1 expression were selected as representative of high expression (KB), low expression (OVCAR3), and no expression (A549). Unlabeled FR1-9 and FR1-13, as well as a commercial anti-FOLR1 antibody (“commercial FRA”), were titrated, and optimal titrations were determined for each of the antibodies using laser scanning cytometry (LSC) detection on the selected cell lines. […] Optimal dilutions were identified for each antibody as follows: 1:5 for commercial FRA, 1:100 for muFR1-9, and 1:200 for muFR1-13.

The target of test [8] is T1, human FolR1-Fc fusion protein. Description: sandwich ELISA: Mu FOLR1-13 coated on the plate, FOLR-Fc fusion titrated, detected with Hu Mov19 and polyclonal goat anti-human HRP.
Test [9] deals with T5, FOLR1 (antigen of the screening ELISAs, form not stated) (human, UniProt P15328 25-234).
T5 construct: It may be the FOLR1-Fc fusion; also called the same antigen; the target
T5 sequence (P15328 25-234 limits assumed): as the sequence (P15328 25-234) above
Description: competition ELISA: serial concentrations of competing murine clone against a constant concentration of (biotinylated) muFR1-13.

Test [10] has as its target T3, human folate receptor 1 (FOLR1) on cells. Description: apparent binding affinity 'by both methods': flow cytometry on T47D cells and ELISA; unit M taken from the preceding value; lower end of the range given for FR1-9; flow cytometry on T47D cells and ELISA. The method, then:
as §1

For test [11] the target is unchanged. Description: apparent binding affinity 'by both methods': flow cytometry on T47D cells and ELISA; unit M taken from the preceding value; upper end of the range given for FR1-9; flow cytometry on T47D cells and ELISA. As for the experimental part: as §1
In test [12] the target is T1, human FolR1-Fc fusion protein. Description: sandwich ELISA (FOLR1 ELISA): clone coated on the plate as capture antibody, FOLR-Fc fusion titrated, format as in FIG. 1. As for the experimental part:
The 40 clones were alternatively coated onto the assay plate in place of muFR1-9 in the diagram, and the resulting binding curves were analyzed shown in FIG. 5. Antibodies that contained the lowest half-maximal response (EC50) were considered to have the highest binding specificity to FOLR1, and thus were chosen as the top candidates for the assay.

Test [13] deals with T3, human folate receptor 1 (FOLR1) on cells. Description: laser scanning cytometry on cell lines, optimal dilution 1:100. The method, then:
as §2

Where “and” joins values, the source holds several entries; their conditions need not be identical. Identical values can stand only once.

T1 sequence (P15328 25-233): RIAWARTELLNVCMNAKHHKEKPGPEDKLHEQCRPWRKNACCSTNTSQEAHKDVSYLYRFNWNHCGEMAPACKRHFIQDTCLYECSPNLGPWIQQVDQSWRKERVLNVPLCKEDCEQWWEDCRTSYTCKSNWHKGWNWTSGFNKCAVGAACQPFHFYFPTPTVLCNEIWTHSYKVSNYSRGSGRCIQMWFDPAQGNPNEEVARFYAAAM
T2 sequence (P41439 23-245 limits assumed): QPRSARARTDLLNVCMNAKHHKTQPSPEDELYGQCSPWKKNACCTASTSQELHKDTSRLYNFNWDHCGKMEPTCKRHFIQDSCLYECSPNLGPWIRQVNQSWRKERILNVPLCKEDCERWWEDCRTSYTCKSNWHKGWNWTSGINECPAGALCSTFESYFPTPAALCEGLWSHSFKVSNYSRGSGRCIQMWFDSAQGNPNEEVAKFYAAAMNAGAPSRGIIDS
T4 sequence (P14207 17-230 limits assumed): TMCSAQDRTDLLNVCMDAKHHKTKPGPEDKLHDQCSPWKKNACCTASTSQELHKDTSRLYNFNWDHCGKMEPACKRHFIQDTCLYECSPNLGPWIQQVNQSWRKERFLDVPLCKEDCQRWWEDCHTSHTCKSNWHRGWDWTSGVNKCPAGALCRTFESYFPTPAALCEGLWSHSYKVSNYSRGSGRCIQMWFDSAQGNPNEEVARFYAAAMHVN

B1: muFR1-13 (antibody, mouse IgG2b, kappa, V domains shown)
VH: QVQLKESGPDLVAPSQSLSITCTVSGFSLSRYSVHWIRQPPGKGLEWLGMIWSGGNTDYNSVFKSRLNITKDNSKSQVFLKMNSLQTDDTAIYYCATFDGKVSWFAYWGQGTLVTVSA
VL: SIVMTQTPKFLLVSTGDRFTITCKASQSVSNDVLWYQQKPGQSPKLLIYYAYNRYSGVPDRFTGSGYGTDFTFTITTVQSEDLAVYFCQQDHSSPFTFGSGTKLEIKR
notes: Murine monoclonal purified from hybridoma supernatant; also called muFR1-13b (biotinylated); Biotinylated FR1-13
As for B1, the “EC50 (read off the curve)” value was ~2 nM and ~3 nM in test [1]; ~1 nM and ~2 nM in test [6]; ~0.005 nM in [8]. Moreover, the values for the binding result in test [2] and in [4] were “no binding (tested: about 2.5 ug/ml antigen)” and “no binding (tested: about 10^-8 M antibody)”, respectively. In addition, the Kd in test [3] is ≤ 3 nM; in test [5] it was ≥ 1 nM. The “signal to background ration” value in test [7] is 4.19. For the same molecule, the “IC50 (read off the curve)” value in test [9] was ~0.07 µg/mL.

B2: muFR1-9 (antibody, mouse IgG1, kappa, V domains shown)
VH: QVQLVESGGGLVQPGGSRKLSCAASGFTFSSFGMHWVRQAPEKGLEWVAYISSGSSTFYYADTVKGRFTISRDNPKNTLFLQMTSLRSEDTAMYYCAKELTGTFAYWGQGTLVTVSA
VL: DIVLTQSPATLSVTPGDSVSLSCRASQSINNNLHWYQQKSHESPRLLIKYASQSISGIPSRFSGSGSGTDFTLSINSVETEDFGMYFCQQSNSWPQVTFGAGTKLELKR
notes: Murine monoclonal purified from hybridoma supernatant; Capture antibody of the sandwich ELISA; also called murine FR1-9
Turning to B2, the Kd is ≥ 2 nM in test [10] and ≤ 4 nM in test [11]. For the same molecule, the binding result was “no binding (tested: about 2.5 ug/ml antigen)” in test [2] and “no binding (tested: about 10^-8 M antibody)” in test [4]. Also, the “EC50 (read off the curve)” value in [12] was ~0.004 nM. For the same molecule, the “signal to background ration” value in test [13] worked out at 4.07.

B3: muFR1-62 (antibody, mouse IgG1, kappa, V domains shown)
VH: QVQLQQSGAELARPGASVKMSCKASGYTFTTYTMHWVKQRPGQGLEWIAYINPTSGYNNYNQKFKEKATLTADKSSSTAYMQLTSLTSEDSAVYYCASGGAYGRRPVDYWGQGTSVTVSS
VL: DIVMTQSQKFMSISVGDRVSVTCKASQNVGTNVAWYQQKPGQSPKTLIYSASSRYSGVPDRFTGSGSGTDFTLTISNVQSEDLADYFCHQYNSYPYTFGGGTKLEIKR
notes: Murine monoclonal; The full-length light chain differs from the VL by shifted residues
Take B3: the binding result is on record as “no binding (tested: about 2.5 ug/ml antigen)” in test [2] and “no binding (tested: about 10^-8 M antibody)” in [4]. Moreover, the “EC50 (read off the curve)” value in [12] was ~0.01 nM.

B4: muFR1-53 (antibody, mouse IgG1, kappa, V domains shown)
VH: QVQLQQSGPELVRPGASVKMSCKASGYKFTDYDISWVLQRTGQGLEWIGEIYPGSGRTYYNERFKGKATLTADKSSNTVYMQLSSLTSEDSAVYFCASSYYYGTNSPFAYWGQGTTLTVSS
VL: DIQMTQTTSSLSASLGDRVTISCRASQDISNYLHWYQRKPDGTVKLLVYYTSRLQSGVPSRFSGSGSGTDYSLTISNLEQEDIATYFCQQGNSLPPTFGSGTKLEIKR
notes: The full-length chains differ from the variable domains by shifted residues
As to B4, the binding result in test [2] is recorded as “no binding (tested: about 2.5 ug/ml antigen)”; in test [4], “no binding (tested: about 10^-8 M antibody)”. Further, the concentration for a half-maximal effect (EC50 (read off the curve)) in test [12] is ~0.01 nM.
